In article PMC4501837, “Mutational Dissection of Telomeric DNA Binding Requirements of G4 Resolvase 1 Shows that G4-Structure and Certain 3’-Tail Sequences Are Sufficient for Tight and Complete Binding”:

What was measured:
[1] = target: T1, G4 Resolvase 1 (G4R1) (UniProt Q9H2U1 1-1008); test: EMSA; K+; did not significantly bind; 50 mM KCl, 10 mM NaCl (or 50 mM KCl or 50 mM NaCl alone), 3 mM MgCl2, 50 mM Tris acetate pH 7.8, 70 mM glycine, 0.012% bovine lactalbumin, 10% glycerol, 10 mM EDTA; 37 C, 0.5 or 24 h; 1 pM DNA, 10-500 pM G4R1; gel at 7 C; conditions: protein: recombinant; label: 5'-32P; unimolecular G4, 3+1 in K+, at most 2 nt 3' tail
T1 sequence: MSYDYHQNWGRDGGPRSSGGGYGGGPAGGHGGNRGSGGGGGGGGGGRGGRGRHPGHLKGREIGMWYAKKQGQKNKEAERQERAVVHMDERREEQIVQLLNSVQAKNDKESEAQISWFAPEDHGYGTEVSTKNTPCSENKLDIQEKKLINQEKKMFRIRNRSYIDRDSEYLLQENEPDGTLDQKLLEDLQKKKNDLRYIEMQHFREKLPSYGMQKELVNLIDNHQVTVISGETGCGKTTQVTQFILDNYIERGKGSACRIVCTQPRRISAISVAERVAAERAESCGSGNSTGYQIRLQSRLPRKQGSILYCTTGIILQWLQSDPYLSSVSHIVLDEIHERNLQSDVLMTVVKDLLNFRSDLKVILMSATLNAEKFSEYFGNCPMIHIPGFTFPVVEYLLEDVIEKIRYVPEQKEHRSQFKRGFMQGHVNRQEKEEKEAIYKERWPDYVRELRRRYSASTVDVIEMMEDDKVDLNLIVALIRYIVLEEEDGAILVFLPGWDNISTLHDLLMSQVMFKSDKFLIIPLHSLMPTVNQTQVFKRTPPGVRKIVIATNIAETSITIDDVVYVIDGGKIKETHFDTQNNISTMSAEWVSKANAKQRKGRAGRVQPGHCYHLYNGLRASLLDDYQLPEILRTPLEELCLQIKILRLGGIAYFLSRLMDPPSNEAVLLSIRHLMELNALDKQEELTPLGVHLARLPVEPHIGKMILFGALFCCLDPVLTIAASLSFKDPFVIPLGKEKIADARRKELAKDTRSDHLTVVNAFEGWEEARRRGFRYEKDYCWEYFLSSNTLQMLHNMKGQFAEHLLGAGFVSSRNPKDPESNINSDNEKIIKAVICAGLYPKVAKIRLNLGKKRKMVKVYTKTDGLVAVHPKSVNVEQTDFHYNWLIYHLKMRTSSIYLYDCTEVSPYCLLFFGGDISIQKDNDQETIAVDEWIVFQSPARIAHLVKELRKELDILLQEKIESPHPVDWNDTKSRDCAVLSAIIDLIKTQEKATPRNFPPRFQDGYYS

[2] = target: T1, G4 Resolvase 1 (G4R1); test: EMSA; K+; 50 mM KCl, 10 mM NaCl (or 50 mM KCl or 50 mM NaCl alone), 3 mM MgCl2, 50 mM Tris acetate pH 7.8, 70 mM glycine, 0.012% bovine lactalbumin, 10% glycerol, 10 mM EDTA; 37 C, 0.5 or 24 h; 1 pM DNA, 10-500 pM G4R1; gel at 7 C; conditions: protein: recombinant, label: 5'-32P, unimolecular G4, 3+1 in K+
[3] = target: T1, G4 Resolvase 1 (G4R1); test: EMSA; K+; similar to Tel33; 50 mM KCl, 10 mM NaCl (or 50 mM KCl or 50 mM NaCl alone), 3 mM MgCl2, 50 mM Tris acetate pH 7.8, 70 mM glycine, 0.012% bovine lactalbumin, 10% glycerol, 10 mM EDTA; 37 C, 0.5 or 24 h; 1 pM DNA, 10-500 pM G4R1; gel at 7 C; conditions: protein: recombinant, label: 5'-32P
[4] = target: T1, G4 Resolvase 1 (G4R1); test: EMSA; 50 mM KCl, K+-induced 3+1 G4, 24 h; apparent Kd, n=3; 50 mM KCl, 10 mM NaCl (or 50 mM KCl or 50 mM NaCl alone), 3 mM MgCl2, 50 mM Tris acetate pH 7.8, 70 mM glycine, 0.012% bovine lactalbumin, 10% glycerol, 10 mM EDTA; 37 C, 0.5 or 24 h; 1 pM DNA, 10-500 pM G4R1; gel at 7 C; conditions: protein: recombinant; label: 5'-32P; unimolecular G4; 3+1 in K+, 2+2 basket in Na+
[5] = target: T1, G4 Resolvase 1 (G4R1); test: EMSA; K+; complete binding restored; 50 mM KCl, 10 mM NaCl (or 50 mM KCl or 50 mM NaCl alone), 3 mM MgCl2, 50 mM Tris acetate pH 7.8, 70 mM glycine, 0.012% bovine lactalbumin, 10% glycerol, 10 mM EDTA; 37 C, 0.5 or 24 h; 1 pM DNA, 10-500 pM G4R1; gel at 7 C; conditions: protein: recombinant; label: 5'-32P; unimolecular G4, two tetrads expected
[6] = target: T1, G4 Resolvase 1 (G4R1); test: EMSA; K+; negligible binding; 50 mM KCl, 10 mM NaCl (or 50 mM KCl or 50 mM NaCl alone), 3 mM MgCl2, 50 mM Tris acetate pH 7.8, 70 mM glycine, 0.012% bovine lactalbumin, 10% glycerol, 10 mM EDTA; 37 C, 0.5 or 24 h; 1 pM DNA, 10-500 pM G4R1; gel at 7 C; conditions: protein: recombinant; label: 5'-32P; G4 ablated (CD)
[7] = target: T1, G4 Resolvase 1 (G4R1); test: EMSA; K+; significant binding restored; 50 mM KCl, 10 mM NaCl (or 50 mM KCl or 50 mM NaCl alone), 3 mM MgCl2, 50 mM Tris acetate pH 7.8, 70 mM glycine, 0.012% bovine lactalbumin, 10% glycerol, 10 mM EDTA; 37 C, 0.5 or 24 h; 1 pM DNA, 10-500 pM G4R1; gel at 7 C; conditions: protein: recombinant; label: 5'-32P; unimolecular G4, two tetrads expected
[8] = unimolecular 5' G4 with about 11 nt 3' tail

B1: Tel26 (structured_DNA)
DNA: TTAGGGTTAGGGTTAGGGTTAGGGTT
- binding result [1]: no binding

B2: Tel22 (structured_DNA)
DNA: AGGGTTAGGGTTAGGGTTAGGG
- binding result ([2]; no 3' tail): no binding

B3: Tel22-3'polyT-mutAGAA (structured_DNA)
DNA: AGGGTTAGGGTTAGGGTTAGGGTTAGAATTTTT
- binding result [3, 8]: binds

B4: Tel22-3'polyT-mutAAGA (structured_DNA)
DNA: AGGGTTAGGGTTAGGGTTAGGGTTAAGATTTTT
- binding result [3, 8]: binds

B5: Tel30 (structured_DNA)
DNA: GGTTAGGGTTAGGGTTAGGGTTAGGGTTAG
- binding result [2]: binds

B6: Tel33 (structured_DNA)
DNA: TTAGGGTTAGGGTTAGGGTTAGGGTTAGGGTTA
- Kd [4]: 0.01 ± 0.0019 nM

B7: Tel33mut5-mutA-pos7G (structured_DNA)
DNA: TTAGAGGTAGGGTTAGGGTTAGGGTTAGAGTTA
- binding result [5]: binds

B8: Tel33mut5-mutA (ssDNA)
DNA: TTAGAGTTAGGGTTAGGGTTAGGGTTAGAGTTA
- binding result [6]: no binding

B9: Tel33mut5 (structured_DNA)
DNA: TTAGGGTTAGGGTTAGGGTTAGGGTTAGAGTTA
- binding result ([3]; unimolecular 5' G4 with 3' tail about 11 nt): binds

B10: Tel33mut5-mutA-pos3G (structured_DNA)
DNA: TTGGAGTTAGGGTTAGGGTTAGGGTTAGAGTTA
- binding result [7]: binds
